Reference: PMC3628942

Target: Bombyx mori lipoprotein 3 (Bombyx mori) (UniProt Q00802)
Assay: crystal structure; crystal form Bmlp3-c2, space group C2, two molecules in the asymmetric unit; grown in 2.0 M ammonium sulfate, 0.1 M ammonium iodide, pH 5.5, 20°C; an iodide anion lies in the centre of the dimer interface

- stoichiometry N: 2
Substance: Bombyx mori lipoprotein 3 (from UniProt Q00802 18-256) (natural protein)
